The record followed here is patent publication US20230235004A1 (published 2023).

Read-outs that look alike come from different tables or passages of the source.

The target in experiment [1] is T1, mouse MAdCAM expressed on cells (mouse, UniProt Q61826 22-405).
T1 construct: whole, on cells
T1 sequence (looked up): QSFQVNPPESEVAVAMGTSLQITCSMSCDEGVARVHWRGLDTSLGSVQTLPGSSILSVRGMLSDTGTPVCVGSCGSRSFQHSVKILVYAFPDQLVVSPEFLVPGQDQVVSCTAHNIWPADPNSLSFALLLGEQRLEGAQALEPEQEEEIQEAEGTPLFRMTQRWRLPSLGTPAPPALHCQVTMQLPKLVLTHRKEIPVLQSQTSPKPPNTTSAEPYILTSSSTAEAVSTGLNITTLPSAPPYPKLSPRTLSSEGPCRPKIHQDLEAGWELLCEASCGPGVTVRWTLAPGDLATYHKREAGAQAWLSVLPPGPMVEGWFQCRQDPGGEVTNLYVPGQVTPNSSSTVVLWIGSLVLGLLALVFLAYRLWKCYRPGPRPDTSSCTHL
Description: cell binding.

Experiment [2] addresses T2, human MAdCAM expressed on cells (human, UniProt Q13477 19-382).
T2 construct: whole, on cells
T2 sequence (looked up): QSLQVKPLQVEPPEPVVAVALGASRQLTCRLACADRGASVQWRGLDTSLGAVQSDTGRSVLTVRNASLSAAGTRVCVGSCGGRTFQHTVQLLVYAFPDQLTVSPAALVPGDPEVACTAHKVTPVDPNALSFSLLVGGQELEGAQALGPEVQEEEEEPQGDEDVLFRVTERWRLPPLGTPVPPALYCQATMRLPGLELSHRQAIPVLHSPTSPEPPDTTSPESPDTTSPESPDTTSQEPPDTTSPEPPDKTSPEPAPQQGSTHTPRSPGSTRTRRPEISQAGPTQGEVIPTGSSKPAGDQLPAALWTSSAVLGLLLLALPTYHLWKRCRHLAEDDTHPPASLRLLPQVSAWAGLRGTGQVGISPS
As to the kind of experiment: cell binding.

Experiment [3] addresses T3, human MAdCAM protein (human, UniProt Q13477 19-317, limits assumed).
T3 construct: also called soluble monomeric human MAdCAM; recombinant human MAdCAM
T3 sequence (looked up): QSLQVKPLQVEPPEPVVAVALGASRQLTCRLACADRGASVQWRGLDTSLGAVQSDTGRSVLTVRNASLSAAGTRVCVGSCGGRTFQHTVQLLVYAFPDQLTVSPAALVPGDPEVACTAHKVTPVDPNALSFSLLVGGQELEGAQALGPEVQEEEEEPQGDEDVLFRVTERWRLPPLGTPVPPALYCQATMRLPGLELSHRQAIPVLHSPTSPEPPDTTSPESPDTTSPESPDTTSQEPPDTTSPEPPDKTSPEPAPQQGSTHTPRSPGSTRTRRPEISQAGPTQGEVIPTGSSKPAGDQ
As to the kind of experiment: Octet.

Experiment [4] has as its target T1, mouse MAdCAM expressed on cells. Description: cell binding. This is another data set of the same source.
Experiment [5] deals with T2, human MAdCAM expressed on cells. Description: cell binding. This is another data set of the same source.
The target in experiment [6] is T3, human MAdCAM protein. As to the kind of experiment: Octet. The source holds these as a separate data set. (In general: Biolayer interferometry detects binding as a change in optical thickness at a sensor tip.)
Experiment [7] has as its target T4, recombinant mouse MAdCAM-1 (mouse, UniProt Q61826 22-364, limits assumed).
T4 construct: also called mMAdCAM-1
T4 sequence (looked up): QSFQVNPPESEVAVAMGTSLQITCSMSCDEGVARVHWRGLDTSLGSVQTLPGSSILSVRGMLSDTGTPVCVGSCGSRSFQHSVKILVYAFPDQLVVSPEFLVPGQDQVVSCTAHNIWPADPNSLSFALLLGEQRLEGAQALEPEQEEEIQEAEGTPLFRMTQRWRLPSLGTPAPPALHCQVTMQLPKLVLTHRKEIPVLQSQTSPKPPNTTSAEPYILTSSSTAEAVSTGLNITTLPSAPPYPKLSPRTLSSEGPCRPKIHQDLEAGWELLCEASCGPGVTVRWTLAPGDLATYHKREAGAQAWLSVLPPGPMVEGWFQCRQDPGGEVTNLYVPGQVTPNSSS
Description: Octet.

For experiment [8], the target named is T4, recombinant mouse MAdCAM-1. Description: Octet. The source holds these as a separate data set.

B1: MAdCAM antibody Table 1 clone 1 (scFv)
scFv: EVQLLESGGGLVQPGGSLRLSCAASGFTFSSYGMHWVRQAPGKGLEWVAVISDDGSDKYYADSVKGRFTISRDNSKNTLYLQMNSLRAEDTAVYYCTTSKYYYYYGMDVWGQGTTVTVSSGGGGSGGGGSGGGGSGGGGSDIQMTQSPSSLSASVGDRVTITCQASQDISKSLNWYQQKPGKAPKLLIYAASSLQSGVPSRFSGSGSGTDFTLTISSLQPEDFATYYCQQGYSTPLTFGGGTKVEIK
For the molecule B1, the binding result (in experiment [1]; in experiment [2]; with human MAdCAM protein [3]) was “binds” each time.

B2: MAdCAM antibody Table 1 clone 66 (scFv)
scFv: EVQLLESGGGLVQPGGSLRLSCAASGFTFSSYWMHWVRQAPGKGLEWVAAISYDGKYKDYEDSVKGRFTISRDNSKNTLYLQMNSLRAEDTAVYYCARENKQWLASFDYWGQGTLVTVSSGGGGSGGGGSGGGGSGGGGSDIQMTQSPSSLSASVGDRVTITCQASQDISNFVNWYQQKPGKAPKLLIYAANLRSGVPSRFSGSGSGTDFTLTISSLQPEDFATYYCQQANSFPVTFGPGTKVDIK
B2: the binding result (in experiment [1]; in experiment [2]; with human MAdCAM protein [3]) was “binds” each time.

B3: MAdCAM Antibody Table 2 clone 79 (antibody, V domains shown)
VH: EVQLLESGGGLVKPGGSLRLSCAASGFTFDDYAMHWVRQAPGKGLEWVASITSSSAFIDYAASVKGRFTISRDDSKNTLYLQMNSLKTEDTAVYYCARERVDWNSYFDLWGRGTLVTVSS
VL: EIVMTQSPATLSVSPGERATLSCRASQGISNSYLAWYQQKPGQAPRLLIYGASTRATGIPARFSGSGSGTEFTLTISSLQSEDFAVYYCQQYYTYPPTFGPGTKVDIK
notes: IgG format
In the case of B3, the binding result (in experiment [4]; in experiment [5]; with human MAdCAM protein [6]; in experiment [7]) was “binds” in each case.

B4: MAdCAM antibody Table 1 clone 20 (scFv)
scFv: EVQLLESGGGLVQPGGSLRLSCAASGFTFDDYAMHWVRQAPGKGLEWVSYIDTSSSHLYYADSVKGRFTISRDNSKNTLYLQMNSLRAEDTAVYYCARDEAAAGYYGMDVWGQGTTVTVSSGGGGSGGGGSGGGGSGGGGSDIQMTQSPSSLSASVGDRVTITCQAGQDISNYLNWYQQKPGKAPKLLIYDASNLETGVPSRFSGSGSGTDFTLTISSLQPEDFATYYCQQTYSTPITFGQGTKLEIK
Regarding B4, the binding result in experiment [1] is “no binding”; in experiment [2], “binds”; with human MAdCAM protein [3], “binds”; in experiment [8], “no binding”.

B5: MAdCAM antibody Table 1 clone 64 (scFv)
scFv: EVQLLESGGGLVKPGGSLRLSCAASGFAFSSHWMHWVRQAPGKGLEWVAGTSGSGESRDYADFVKGRFTISRDDSKNTLYLQMNSLKTEDTAVYYCARETYYYYYMDVWGKGTTVTVSSGGGGSGGGGSGGGGSGGGGSDIQMTQSPSSLSASVGDRVTITCRASQGISNYLAWYQQKPGKAPKLLIYDAANLEGGVPSRFSGSGSGTDFTLTISSLQPEDFATYYCQQSDIFPPTFGQGTKVEIK
For B5, the binding result (in experiment [1]; in experiment [2]; with human MAdCAM protein [3]) was “binds” each time.

B6: MAdCAM antibody Table 1 clone 61 (scFv)
scFv: EVQLLESGGGLVQPGGSLRLSCAASEFTFSNAWMSWVRQAPGKGLEWVASISSTSAYIDYADSVKGRFTISRDNSKNTLYLQMNSLRAEDTAVYYCAREVVGATTFDYWGQGTLVTVSSGGGGSGGGGSGGGGSGGGGSDIQMTQSPSSLSASVGDRVTITCRASQSISTWLAWYQQKPGKAPKLLIYAASSLQSGVPSRFSGSGSGTDFTLTISSLQPEDFATYYCQQANAFPPTFGQGTRLEIK
B6: the binding result (in experiment [1]; in experiment [2]; with human MAdCAM protein [3]) was “binds” in each case.

B7: MAdCAM antibody Table 1 clone 19 (scFv)
scFv: EVQLLESGGGLVQPGGSLRLSCAASGFTFDDYAMHWVRQAPGKGLEWVSGISWNSGSIGYADSVKGRFTISRDNSKNTLYLQMNSLRAEDTAVYYCAKDIVAAGHYYYGMDVWGQGTTVTVSSGGGGSGGGGSGGGGSGGGGSDIQMTQSPSSLSASVGDRVTITCQASQDISNYLNWYQQKPGKAPKLLIYDASNLETGVPSRFSGSGSGTDFTLTISSLQPEDFATYYCQQSYSTPLTFGGGTKVEIK
For B7, the binding result in experiment [1] was “no binding”; in experiment [2], “binds”; in the experiment with human MAdCAM protein [3], “binds”; in experiment [8], “no binding”.

B8: MAdCAM antibody Table 1 clone 63 (scFv)
scFv: EVQLLESGGGLVKPGGSLRLSCAASGFTFDDYAMHWVRQAPGKGLEWVASITSSSAFIDYAASVKGRFTISRDDSKNTLYLQMNSLKTEDTAVYYCARERVDWNSYFDLWGRGTLVTVSSGGGGSGGGGSGGGGSGGGGSEIVMTQSPATLSVSPGERATLSCRASQGISNSYLAWYQQKPGQAPRLLIYGASTRATGIPARFSGSGSGTEFTLTISSLQSEDFAVYYCQQYYTYPPTFGPGTKVDIK
Take B8: the binding result (in experiment [1]; in experiment [2]; with human MAdCAM protein [3]; in experiment [8]) was “binds” each time.

B9: MAdCAM antibody Table 1 clone 23 (scFv)
scFv: EVQLLESGGGLVQPGGSLRLSCAASGFTFSSYAMHWVRQAPGKGLEWVSGISGSGGSAYYADSVKGRFTISRDNSKNTLYLQMNSLRAEDTAVYYCATSQAPVDYYYYGMDVWGQGTTVTVSSGGGGSGGGGSGGGGSGGGGSDIQMTQSPSSLSASVGDRVTITCRASQSISSWLAWYQQKPGKAPKLLIYAASNLQRGVPSRFSGSGSGTDFTLTISSLQPEDFATYYCQQSYSIPITFGQGTKVEIK
Regarding B9, the binding result in experiment [1] is recorded as “no binding”; in experiment [2] it was “binds”; in the experiment with human MAdCAM protein [3] it was “binds”; in experiment [8], “no binding”.

B10: MAdCAM antibody Table 1 clone 65 (scFv)
scFv: QVQLVQSGAEVKKPGASVKVSCKASGYTFTRHWIHWVRQAPGQGLEWMGWINVKTGGAGYAQKFQGRVTMTRDTSTSTVYMELSSLRSEDTAVYYCARESSGWYGTDVWGQGTTVTVSSGGGGSGGGGSGGGGSGGGGSDIQMTQSPSSLSASVGDRATITCRASQSISNYLAWYQQKPGKAPKLLIYAASSLQSGVPSRFSGSGSGTDFTLTISSLQPEDFATYYCQQSNSFPLTFGGGTKVEIK
For the molecule B10, the binding result (in experiment [1]; in experiment [2]; with human MAdCAM protein [3]) was “binds” throughout.

B11: MAdCAM antibody Table 1 clone 59 (scFv)
scFv: EVQLLESGGGLVQPGGSLRLSCAASGFTFSDFWMHWVRQAPGKGLEWISYISGDSGYTNYADSVKGRFTISRDNSKNTLYLQMNSLRAEDTAVYYCARDRPYYYYMDVWGKGTTVTVSSGGGGSGGGGSGGGGSGGGGSDIQMTQSPSSLSASVGDRVTITCRASQSVSRSLAWYQQKPGKAPKLLIYAASSLQSGVPSRFSGSGSGTDFTLTISSLQPEDFATYYCQQYKSYPVTFGQGTKVEIK
With B11, the binding result (in experiment [1]; in experiment [2]; with human MAdCAM protein [3]; in experiment [8]) was “binds” throughout.
